Data published in patent US20250270254A1, “PROBES AND KITS FOR THE EARLY DIAGNOSIS OF DIFUSE LARGE B-CELL LYMPHOMA” (BEIJING BOE TECHNOLOGY DEVELOPMENT CO., LTD., priority 2022, published 2025).
Where a SMILES comes first, the peptide text is derived from it.

B1: BtaPL1 (peptide)
peptide: ICWRRRRRF
notes: Designed synthetic polypeptide probe; spotted on a bare gold SPRi chip; also called Ile-Cys-Trp-Arg5-Phe
B2: BtaE3 (peptide)
peptide: ICWGRRRGGF
notes: Designed synthetic polypeptide probe; spotted on a bare gold SPRi chip; also called Ile-Cys-Trp-Gly-Arg3-Gly2-Phe
B3: BtaPL2 (peptide)
peptide: ICWRRRRRRRF
notes: Designed synthetic polypeptide probe; spotted on a bare gold SPRi chip; also called Ile-Cys-Trp-Arg7-Phe
B4: Bta3097 (peptide)
peptide: GCYRRF
notes: Synthetic polypeptide probe from the Mix-Split library; spotted on a bare gold SPRi chip; also called Gly-Cys-Tyr-Arg-Arg-Phe
B5: BtaPL5 (peptide)
peptide: ICWRRRRRRRRRRRRRF
notes: Designed synthetic polypeptide probe; spotted on a bare gold SPRi chip; also called Ile-Cys-Trp-Arg13-Phe
B6: BtaE2 (peptide)
peptide: ICWGGRRRGGGF
notes: Designed synthetic polypeptide probe; spotted on a bare gold SPRi chip; also called Ile-Cys-Trp-Gly2Arg3Gly3-Phe
B7: BtaPL3 (peptide)
peptide: ICWRRRRRRRRRF
notes: Designed synthetic polypeptide probe; spotted on a bare gold SPRi chip; also called Ile-Cys-Trp-Arg9-Phe
B8: BtaPL4 (peptide)
peptide: ICWRRRRRRRRRRRF
notes: Designed synthetic polypeptide probe; spotted on a bare gold SPRi chip; also called Ile-Cys-Trp-Arg11-Phe
B9: Bta1335 (peptide)
peptide: CCHRGF
notes: Synthetic polypeptide probe from the Mix-Split library; spotted on a bare gold SPRi chip; also called Cys-Cys-His-Arg-Gly-Phe
B10: BtaP3 (peptide)
peptide: ICWRRGI
notes: Designed synthetic polypeptide probe; spotted on a bare gold SPRi chip; also called Ile-Cys-Trp-Arg-Arg-Gly-Ile
B11: Bta893 (peptide)
peptide: HCWRGF
notes: Synthetic polypeptide probe from the Mix-Split library; spotted on a bare gold SPRi chip; also called His-Cys-Trp-Arg-Gly-Phe
B12: BtaP1 (peptide)
peptide: HCWRRF
notes: Designed synthetic polypeptide probe; spotted on a bare gold SPRi chip; also called His-Cys-Trp-Arg-Arg-Phe
B13: BtaE1 (peptide)
peptide: ICWRRRGGGF
notes: Designed synthetic polypeptide probe; spotted on a bare gold SPRi chip; also called Ile-Cys-Trp-Arg3Gly3-Phe
B14: BtaP2 (peptide)
peptide: ICWRRF
notes: Designed synthetic polypeptide probe; spotted on a bare gold SPRi chip; also called Ile-Cys-Trp-Arg-Arg-Phe

Legend:
[1] = system: diffuse large B-cell lymphoma cells; assay: Analysis of probe specificity: probe-coupled magnetic bead capture from mixed cells, flow cytometry; type: cell-based; conditions: positive cells (diffuse large B-cell lymphoma cells) mixed with negative cells (HELA cells) 1:10; proportion of positive cells among captured cells by flow cytometry
Description: The diagnostic specificity of the small molecular probe was detected using flow cytometry and the specific steps were as follows: • 1) Preparation of gradient concentration of cell samples: positive cells (diffuse large B-cell lymphoma cells) were mixed with negative cells (HELA cells) at a ratio of 1:10 and repeatedly pipetted to mix well; • 2) Probe-bead coupling: the reaction was performed in PBS buffer, with a bead-coupling concentration of 1 mg/mL, and 1 mg of beads corresponded to 10 μg of the BtaE3 probe, with gentle shaking for 1 h at room temperature. This was followed by washing five times with PBS buffer containing 0.01% BSA, standing for 30 s each time, and finally resuspending in PBS buffer at a concentration of 15 mg/mL; • 3) Positive cell enrichment: cells were thoroughly mixed with the magnetic bead suspension, with shaking by hand for 30 min at 4° C. in an ice box, followed by washing three times with PBS (containing 0.1% BSA and 2 mM EDTA) buffer and resuspending in PBS; • 4) Specificity analysis: The captured cells were separated using a magnetic field, and the protein expression profile was quantified by flow cytometry to calculate the proportion of positive cells.

CD138 = CD138 (UniProt P18827 23-251); assay: SPR imaging (SPRi); probe spotted on bare gold chip, CD138 flowed at 50-800 nM
CD138, sequence (P18827 23-251): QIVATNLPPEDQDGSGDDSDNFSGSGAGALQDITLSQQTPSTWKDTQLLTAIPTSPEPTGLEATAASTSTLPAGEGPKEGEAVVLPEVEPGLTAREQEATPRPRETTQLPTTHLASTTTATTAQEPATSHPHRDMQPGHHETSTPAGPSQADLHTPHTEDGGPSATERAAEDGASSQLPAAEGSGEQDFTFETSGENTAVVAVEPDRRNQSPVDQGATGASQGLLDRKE

Row | Molecule | specificity for detection [1] | Kd (CD138)
1 | CC[C@H](C)[C@H](N)C(=O)N[C@@H](CS)C(=O)N[C@@H](Cc1c[nH]c2ccccc12)C(=O)NCC(=O)N[C@@H](CCCNC(=N)N)C(=O)N[C@@H](CCCNC(=N)N)C(=O)N[C@@H](CCCNC(=N)N)C(=O)NCC(=O)NCC(=O)N[C@@H](Cc1ccccc1)C(=O)O [BtaE3, Ile-Cys-Trp-Gly-Arg3-Gly2-Phe] (H-ICWGRRRGGF-OH; N-terminus and C-terminus assumed) | > 90% | –
2 | B1 | – | 0.856 nM
3 | B2 | – | 0.121 nM
4 | B3 | – | 0.731 nM
5 | B4 | – | 5.26 nM
6 | B5 | – | 85.7 nM
7 | B6 | – | 0.309 nM
8 | B7 | – | 6.56 nM
9 | B8 | – | 9.21 nM
10 | B9 | – | 2.57 nM
11 | B10 | – | 0.977 nM
12 | B11 | – | 1.29 nM
13 | B12 | – | 1.15 nM
14 | B13 | – | 0.702 nM
15 | B14 | – | 1.02 nM
